The test deals with recombinant YFV E protein (Meridian Life Science) (Yellow fever virus, UniProt P03314 286-679). Kind of test: ELISA.
Sequence of recombinant YFV E protein (Meridian Life Science) (P03314 286-679): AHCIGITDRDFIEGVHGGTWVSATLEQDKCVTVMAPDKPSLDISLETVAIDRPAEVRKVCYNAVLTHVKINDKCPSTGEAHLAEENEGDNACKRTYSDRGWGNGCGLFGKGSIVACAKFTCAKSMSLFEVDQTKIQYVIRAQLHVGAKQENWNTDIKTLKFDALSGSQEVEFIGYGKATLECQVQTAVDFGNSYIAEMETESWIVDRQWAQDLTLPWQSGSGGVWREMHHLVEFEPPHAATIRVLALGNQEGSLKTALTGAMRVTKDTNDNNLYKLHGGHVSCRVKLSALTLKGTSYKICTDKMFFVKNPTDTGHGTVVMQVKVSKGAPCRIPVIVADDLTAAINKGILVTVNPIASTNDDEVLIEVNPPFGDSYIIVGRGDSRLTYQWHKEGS

B1: human monoclonal antibody YFV-121 (antibody, V domains shown)
VH: EVQLVESGGGLVQPGGSLRLSCAASGFTFSSYSMNWVRQAPGKGLEWVSYISSSSRTIYYADSVKGRFTISRDNAKNSLDLQMNSLRDEDTAVYYCAREVSSHGYRYWGQGTLVTVSS
VL: EIVLTQSPATLSLSPGERATLSCRASQSVSSFLAWYQQKPGQAPRLLIYDASNRATGIPARFTGSGSGTDFTLTISSLEPEDFAVYYCQQRSNWPPWTFGQGTKVEIK
What is called EC50 is the midpoint of the concentration-response curve. Consider B1, for which the EC50 was 0.311 µg/mL.

B2: human monoclonal antibody YFV-136 (antibody, V domains shown)
VH: QVQLQESGPGLVKPSGTLSLTCAVSGGSISSSNWWSWVRQPPGKGLEWIGDIYHSGSTSYNPSLKSRVTISVDRSKNQFSLKLSSVTAADTAVYYCARAPLVNWYYFDYWGQGTLVTVSS
VL: QSVLTQPPSVSAAPGQKVTISCSGSSSNIGNNYVSWYQQLPGTAPKLLIYDNNKGPSGIPDRFSGSKSGTSATLGITGLQTGDEADYYCGTWDTSLSAGRVFGGGTKLTVL
Take B2: the EC50 is 0.27 µg/mL.

(Values after patent US20230072640A1 (published 2023).)
